Test results reported in the RNAGym collection of RNA variant scans (doi:10.1021/acssynbio.7b00057).

B1: Pistol ribozyme (parent)
chain: GGGUCGUUGUUCCAUAAUCGCGUGGAUAUGGCACGCAAGUUUCUACCGGGCACCGUAAAUGUCCGACUGGAGCCGUUCGGGCGGCUAUAAACAGACCUCAGGCCCGAAGCGUGGCGGCACCUGCCGCCGGUGGUAAAAAAGAUCGGAAGAGCACACGUCU

Variants of: B1
Assay: aptazyme ON/OFF ratio, guanine; higher = stronger switching; co-transcriptional cleavage with and without guanine

Variant	aptazyme ON/OFF ratio
GGGUCGAUACCUAAUAAUCGCGUGGAUAUGGCACGCAAGUUUCUACCGGGCACCGUAAAUGUCCGACUGGAGCCGUUCGGGCGGCUAUAAACAGACCUCAGGCCCGAAGCGUGGCGGCACCUGCCGCCGGUGGUAAAAAAGAUCGGAAGAGCACACGUCU [U7A G9A U10C U11C C12U C13A]	1.03
GGGUCGAUACCUUAUAAUCGCGUGGAUAUGGCACGCAAGUUUCUACCGGGCACCGUAAAUGUCCGACUGGAGCCGUUCGGGCGGCUAUAAACAGACCUCAGGCCCGAAGCGUGGCGGCACCUGCCGCCGGUGGUAAAAAAGAUCGGAAGAGCACACGUCU [U7A G9A U10C U11C C12U C13U]	1.04
GGGUCGAUACCUGAUAAUCGCGUGGAUAUGGCACGCAAGUUUCUACCGGGCACCGUAAAUGUCCGACUGGAGCCGUUCGGGCGGCUAUAAACAGACCUCAGGCCCGAAGCGUGGCGGCACCUGCCGCCGGUGGUAAAAAAGAUCGGAAGAGCACACGUCU [U7A G9A U10C U11C C12U C13G]	1.04
GGGUCGAUACACGAUAAUCGCGUGGAUAUGGCACGCAAGUUUCUACCGGGCACCGUAAAUGUCCGACUGGAGCCGUUCGGGCGGCUAUAAACAGACCUCAGGCCCGAAGCGUGGCGGCACCUGCCGCCGGUGGUAAAAAAGAUCGGAAGAGCACACGUCU [U7A G9A U10C U11A C13G]	1.12
GGGUCGAUACACUAUAAUCGCGUGGAUAUGGCACGCAAGUUUCUACCGGGCACCGUAAAUGUCCGACUGGAGCCGUUCGGGCGGCUAUAAACAGACCUCAGGCCCGAAGCGUGGCGGCACCUGCCGCCGGUGGUAAAAAAGAUCGGAAGAGCACACGUCU [U7A G9A U10C U11A C13U]	1.19
GGGUCGAUACCCCAUAAUCGCGUGGAUAUGGCACGCAAGUUUCUACCGGGCACCGUAAAUGUCCGACUGGAGCCGUUCGGGCGGCUAUAAACAGACCUCAGGCCCGAAGCGUGGCGGCACCUGCCGCCGGUGGUAAAAAAGAUCGGAAGAGCACACGUCU [U7A G9A U10C U11C]	1.01
GGGUCGAUACCCUAUAAUCGCGUGGAUAUGGCACGCAAGUUUCUACCGGGCACCGUAAAUGUCCGACUGGAGCCGUUCGGGCGGCUAUAAACAGACCUCAGGCCCGAAGCGUGGCGGCACCUGCCGCCGGUGGUAAAAAAGAUCGGAAGAGCACACGUCU [U7A G9A U10C U11C C13U]	1.02
GGGUCGAUACCCGAUAAUCGCGUGGAUAUGGCACGCAAGUUUCUACCGGGCACCGUAAAUGUCCGACUGGAGCCGUUCGGGCGGCUAUAAACAGACCUCAGGCCCGAAGCGUGGCGGCACCUGCCGCCGGUGGUAAAAAAGAUCGGAAGAGCACACGUCU [U7A G9A U10C U11C C13G]	1.03
GGGUCGAUACCCAAUAAUCGCGUGGAUAUGGCACGCAAGUUUCUACCGGGCACCGUAAAUGUCCGACUGGAGCCGUUCGGGCGGCUAUAAACAGACCUCAGGCCCGAAGCGUGGCGGCACCUGCCGCCGGUGGUAAAAAAGAUCGGAAGAGCACACGUCU [U7A G9A U10C U11C C13A]	0.975
GGGUCGAUACCACAUAAUCGCGUGGAUAUGGCACGCAAGUUUCUACCGGGCACCGUAAAUGUCCGACUGGAGCCGUUCGGGCGGCUAUAAACAGACCUCAGGCCCGAAGCGUGGCGGCACCUGCCGCCGGUGGUAAAAAAGAUCGGAAGAGCACACGUCU [U7A G9A U10C U11C C12A]	1.18
GGGUCGAUACCGCAUAAUCGCGUGGAUAUGGCACGCAAGUUUCUACCGGGCACCGUAAAUGUCCGACUGGAGCCGUUCGGGCGGCUAUAAACAGACCUCAGGCCCGAAGCGUGGCGGCACCUGCCGCCGGUGGUAAAAAAGAUCGGAAGAGCACACGUCU [U7A G9A U10C U11C C12G]	1.09
GGGUCGAUACCUCAUAAUCGCGUGGAUAUGGCACGCAAGUUUCUACCGGGCACCGUAAAUGUCCGACUGGAGCCGUUCGGGCGGCUAUAAACAGACCUCAGGCCCGAAGCGUGGCGGCACCUGCCGCCGGUGGUAAAAAAGAUCGGAAGAGCACACGUCU [U7A G9A U10C U11C C12U]	1.03
GGGUCGAUACCAUAUAAUCGCGUGGAUAUGGCACGCAAGUUUCUACCGGGCACCGUAAAUGUCCGACUGGAGCCGUUCGGGCGGCUAUAAACAGACCUCAGGCCCGAAGCGUGGCGGCACCUGCCGCCGGUGGUAAAAAAGAUCGGAAGAGCACACGUCU [U7A G9A U10C U11C C12A C13U]	1.12
GGGUCGAUACCAGAUAAUCGCGUGGAUAUGGCACGCAAGUUUCUACCGGGCACCGUAAAUGUCCGACUGGAGCCGUUCGGGCGGCUAUAAACAGACCUCAGGCCCGAAGCGUGGCGGCACCUGCCGCCGGUGGUAAAAAAGAUCGGAAGAGCACACGUCU [U7A G9A U10C U11C C12A C13G]	1.08
GGGUCGAUACCAAAUAAUCGCGUGGAUAUGGCACGCAAGUUUCUACCGGGCACCGUAAAUGUCCGACUGGAGCCGUUCGGGCGGCUAUAAACAGACCUCAGGCCCGAAGCGUGGCGGCACCUGCCGCCGGUGGUAAAAAAGAUCGGAAGAGCACACGUCU [U7A G9A U10C U11C C12A C13A]	1.06
GGGUCGAUACCGUAUAAUCGCGUGGAUAUGGCACGCAAGUUUCUACCGGGCACCGUAAAUGUCCGACUGGAGCCGUUCGGGCGGCUAUAAACAGACCUCAGGCCCGAAGCGUGGCGGCACCUGCCGCCGGUGGUAAAAAAGAUCGGAAGAGCACACGUCU [U7A G9A U10C U11C C12G C13U]	1.04
GGGUCGAUACCGGAUAAUCGCGUGGAUAUGGCACGCAAGUUUCUACCGGGCACCGUAAAUGUCCGACUGGAGCCGUUCGGGCGGCUAUAAACAGACCUCAGGCCCGAAGCGUGGCGGCACCUGCCGCCGGUGGUAAAAAAGAUCGGAAGAGCACACGUCU [U7A G9A U10C U11C C12G C13G]	1.09
GGGUCGAUACCGAAUAAUCGCGUGGAUAUGGCACGCAAGUUUCUACCGGGCACCGUAAAUGUCCGACUGGAGCCGUUCGGGCGGCUAUAAACAGACCUCAGGCCCGAAGCGUGGCGGCACCUGCCGCCGGUGGUAAAAAAGAUCGGAAGAGCACACGUCU [U7A G9A U10C U11C C12G C13A]	1.07
